Data on 20 sequences can be found in the DeepSol protein solubility set.

This data set is described as follows: soluble on expression in E. coli; label from the status in PepcDB or PDB records.
Regarding “MKAFSSYDEKPPAPPIRFSSSATRENQVVGLKPLPKEPEATKKKKTMPNPFMKKNKDKKEASEKPVISRPSNFEHTIHVGYDPKTGEFTGMPEAWARLLTDSQISKQEQQQNPQAVLDALKYYTQGESSGQKWLQYDMNDAPSRTPSYGLKPQPYSTSSLPYHGNKIQDPRKMNPMTTSTSSAGYNSKQGVPPTTFSVNENRSSMPPSYAPPPVPHGETPADIVPPAIPDRPARTLSIYTKPKEEEEKIPDLSKGQFGVQARGQKAKKKMTDAEVLTKLRTIVSIGNPDRKYRKVDKIGSGASGSVYTAIEISTEAEVAIKQMNLKDQPKKELIINEILVMRENKHANIVNYLDSYLVCDELWVVMEYLAGGSLTDVVTECQMEDGIIAAVCREVLQALEFLHSRHVIHRDIKSDNILLGMDGSVKLTDFGFCAQLSPEQRKRTTMVGTPYWMAPEVVTRKQYGPKVDVWSLGIMAIEMVEGEPPYLNENPLRAIYLIATNGKPDFPGRDSMTLLFKDFVDSALEVQVENRWSASQLLTHPFLRCAKPLASLYYLIVAAKKSIAEASNS”, the “soluble on expression in E. coli” value was “not soluble”. For “MSLHLNVAQQLYNAEITAGSLLLKESRAIAQLLLQSADETAWRQAIAIDNILQKTSPASAKRMSSLIRKRLELMPRELWSMIADGTTEVAIQSLMAAAIKHSRLLGDFMLKVLQRHYREFNPKILSREWDSFLAECAHIDPAVASWSQSTRKKVGQVAYRILSEAGYLDNTRSLKLQPVLIAPEVSKFLNSHDEKYILKCMEIAHEEGHHHHHH” the value was “soluble”.

“MIEISTSATSTTVTIEGDLDLSTRPQFHAATAKLGAVRRPLLVIDASRITFLDSTGAAFLISLADATRKRGGAAVLRGADERVLFVLETCGALDFFRLDPEPGLQEGDGGTRLRG”: the “soluble on expression in E. coli” value is on record as “not soluble”. In the case of “MPILIRNIVLAPGEGDDVLGTRVAERFGVPERDIQSLHLVRKSIDARRKPRVIIVCTVQCRLLDEAGFLVRHGHDPDVKAVKEEPQPVFPRLAGGGRIVIVGMGPAGLFAALRLAEYGLAPTILERGRPVEERTRDVQAFWSLGQLDTESNVQFGEGGAGTFSDGKLTTRVNDSRIGYVLQKFVDFGASPEILHLAKPHVGTDQLRRVVAGIRQGLLAAGCDIRFRSRVTDIVSREGRVGTVIVNGTDEIAADALVLAPGHSARDTYEMLARRGVHLQAKPFAMGVRVEHPQELINGIQYGKGHHPALPPADYALAHNDRRTGRSAYSFCMCPGGVVVAGSSEEGGVVTNGMSAHLRNTPFANSALVVTVGPDDFGSSSPLAGVEFQRHWERRAFEAGGGGYRAPAQNLLSFLGMKGGKGVSSSYRPRVTETDLSRVLPAAVTGTLREALPTFDRRMRGFVTAEATLTGVETRTSAPVRIVRGEDCQSVSLQGLYPTGEGAGYAGGIMSAALDGIRVADIIAGKMTAETRSAILEHHHHHH” it was “not soluble”; in that of “VSQLFEEKAKAVNELPTKPSTDELLELYALYKQATVGDNDKEKPGIFNMKDRYKWEAWENLKGKSQEDAEKEYIALVDQLIAKYSS”, “soluble”.

“MDKTQSYDIFLIAPPGLEQVLAEEATACGFDEPRVVPGGVETRGPWSEVMRANLVLRGAGRVLVRIGGFPAVHLAQLDKRARKFAWGDFLRPDRPIRVEAVSRKSKIYHAGAAKQRVERAITEELGAPISDEAEIRLMLRIERDFCTFSIDTSGEALHKRGHKEAVGKAPMRETMAALFLRQCGFDGAEPVLDPMCGSGSFVIEAAEWAAGLMPGRSRSFAFEQLAGFDAAQWQSMRNAAGAGGRPESLYSGSDRNAGAIDASRANATRAGVADFCAFHQRPVSDIRPPEGRPGLVIVNPPYGARIGDQARLRSLYGSLGKVLMDRFSGWRVGLITSEMSLARSTRLPFQAPGPVVDHGGIKVRLYQSVRLR”: the “soluble on expression in E. coli” value is listed as “not soluble”. In the case of “MSLKMQEPIEDPLSKLTQYSGKTFVIKYGGSIMKNKKAEEAFIKDVKYLRKLGINIVIVHGGGPEISRWLELSGIESRFVDGLRVTDEKVIEIVQMVLSGKINKKLSLQFNIDGVNAVGLSGVDNKLIEATKKYVYKGNETIDIGYVGKVTKVNSEFIKELLKGGQVPVIAPIGCDNKGNVYNINADYAAAFISSALDAEKLIILTDVEGVYRNINDPQSIIHEIDIKDVNYYIKEEIIKGGMIPKVQCCASAIENGTKNVQLIDGRNDHCLINDILNYRGTIISYRSGVKCQKAIEGHHHHHH” it was “soluble”; in that of “MNTNREPRFHDKVQAACYALMLDEHGVPADTGTLLYTKNAAVDRSEASGDLSPAKEFSIGRGFLEFVVRERNHLAALEASDGPPTGYEADAKCDYCFEQDTCMVVSGRLDQESKAGRIGDPVPAEERAYFDELYDAIEAERGAIHDEYRKLWEQSPDERAADDRAVVGLSPAEQTELPDGRWRLTATRPGSAASKIREGDRVLASDGDPVAGRAEMARVERLDADRVEVTTDEPVSLCRLDVYPSELEHHHHHH”, “soluble”. For “MDPIKQEISEYFKDWMELYKKNAIDEMTYKGYEQTLKYLKTYMPNVLISEITASSYQRALNKFAETHAKASTKGFHTRVRASIQPLIEEGRLQKDFTTRAVVKGLEHHHHHH” the value was “soluble”. For “MSLDTENVKYRSITTKIELDDLIESLKKAKYISIDTETSSLDTYTAKLIGISISFKEFEGYYIPIEAKGKIYIEKNYIIQKFNNLFESNPKIIGQNYKFDYKILKNNGFNPIPPYFDTMIAAYLIDTNSKVSLDFLAEKYLMHKNIKYEDVIQKNDNFANISLEMATSYSSEDADITFRLFNIFTKKLKEDKLDKLMHEIEMPFNKVIIEMEENGIYLDKEYLKEYGKELGKELEAIENEIIKSIGIDFNLNSPKQMHEILFEKLNLKLPEKMKKDSTDIKVLESLREQHESIENLIKYRQIAKLKSTYTDNLIELINYKTNRLHTSFIQTKTATGRITSINPNLQNIPIKDEKGRKIRKAFKPENGNIFISADYSQIELAILAHLSQDEVLIKAFENNKDIHTETASKLFKIEEKEITPNLRRIAKSINFGIIYRMSDFRLAKELGITKEEAKGFINSYFDSYPKIKEFIINQINFVRNAGYSETILKRRRYIKEINSNNYLERSAAERIAINSIIQGSAADIMKIAMVKVFNEFKSKKMESKILLQVHDEMLIESPIEEENEVKKILKIMMETAYTLNLPLRANIETGKSWGEIHEGHHHHHH” the value was “soluble”. As for “RSRGNFPIYNNTRVTYFPTGETFFDSLKEQLFLAKKYIFLEFFIIAEGQMWGEILSILEKKVSEGVEVRVLFDGMNELSTLSSDYAKRLEQIGIKAKSFLPISPFISTYYNYRDHRKIVVIDGEVSFTGGINLADEYINEVERFGHWKDAGLMLEGEATDSFLILFLQMWSITEKELIIDPYLSDHSLKLPSDGYVIPYGDSPLDTDKIGKNV”, the “soluble on expression in E. coli” value is “not soluble”.

Take “SFAAIASGNPLQLSVEVPNSNGLQHTIVLSRTKPKLYSHITLFILPNVTFPQDYIATVYFKLSPQEEFKLFGYLSSEKPSAIFKVQIPSSKKDAGDTSDGLGEIDMDVDDGSGAADPFTDTNGSSSNNISELIIGISIEPREQGMMKLEEWKASMNAEAQKNNSLILSRPNLGIIRNITTAGQLAQVYPSLTQELAAKIVQHAYNYLSGFLDAQGNVPIKRFDTWWDKFRNRLANDGTFLDEVTKN”: the “soluble on expression in E. coli” value is given as “soluble”.

As to “MNELQAYHLSRNQFCPNLFFLAMNNVAQTDTPQQYDLRILRALRRITRSIALHSRQLAAVSHITAPQLMCLRAVIAGGPMTATAISREIHVSPSTVVGILDRLEDKGLIRRERGREDRRIVFVTATEGGRTLAAEAPSPLQKHLADGLNALPELEQATITLALERIVALMEQEGHAVEAAGEGSPPILEMPTGGAPPESGLVV”, the “soluble on expression in E. coli” value is recorded as “not soluble”. For “MGSDKIHHHHHHMLPLDSLSDCASKSYLLTHLPDLNHRHLSSSVSTNSELIAAVQDGTLNATAMHLLTAETQSAGRGQHGRSWQSPRGNVYLSLYHPVHIPISGLLSLIIGVELAKMPIIQTLNDQLCAQGLTPIGVKWANDLGFYSYQYHHQSELHKILLANEMTPFHKLAGILIEPVTQAGKLVGIVMGVGLNVQATPKLTAQTCEGMSYQAISLQDIKQLLEPDKSASALLSLRELYQQMSKALMAAMTRFEHLGLEKPTGQTYNLDSFLKQFDSMDALAGLRLRITQEHNGQTETLTGYACGIDTHGCLQLRQDNGNISALFTGRIDVIDNA” the value was “not soluble”. For “ESSRSAMMYIQELRSGLRDMHLLSCLESLRVSLNNNPVSWVQTFGAEGLASLLDILKRLHDEKEETSGNYDSRNQHEIIRCLKAFMNNKFGIKTMLETEEGILLLVRAMDPAVPNMMIDAAKLLSALCILPQPEDMNERVLEAMTERAEMDEVERFQPLLDGLKSGTSIALKVGCLQLINALITPAEELDFRVHIRSELMRLGLHQVLQELREIENEDMKVQLCVFDEQGDEDFFDLKGRLDDIRMEMDDFGEVFQIILNTVKDSKAEPHFLSILQHLLLVRNDYEARPQYYKLIEECVSQIVLHKNGTDPDFKCRHLQIDIERLVDQMIDKTKVEKSEAKATELEKKLDSELTARHELQVEMKKMENDFEQKLQDLQGEKDALDS”, the “soluble on expression in E. coli” value is “soluble”.

For “VAFTEKQDALVSSSFEAFKANIPQYSVVFYTSILEKAPAAKDLFSFLANGVDPTNPKLTGHAEKLFALVRDSAGQLKASGTVVADAALGSVHAQKAVTDPQFVVVKEALLKTIKAAVGDKWSDELSRAWEVAYDELAAAIKKA”, the “soluble on expression in E. coli” value is “soluble”.

For “MVGSLLPSHATEFEKRLADACDFHQDVDGAVLGISRAKLITRPPRFLPWLIEEYGLGELTPYVPNLYDLIDQGLAWQRLRGSVAAIELGLKWLELSARFTPAWSGRAWWNSFQLDFDQLPEQSSLEAIEAIVDLSKSFRSDFRRSTYGYDVEATEGDMSHLDDSMLDFESGVRLTARDTLFSFGRTTQIKHTLTKEEGKLIGNWIDDVDEELSWNQIDYPWELANFPWCSVKKHERDILIAKWFQNRPLYLALRDLDNTLIGYRRCYAVQPVEQAVEGVYSHCGNRFNPSPTGTMLFLAARTDFEDVENKQAASVPLLVHGSLVEQTPLGKLWLGADELRGGVEILKTPINIPLRADVREQFKILLRF”, the “soluble on expression in E. coli” value is “not soluble”. For “MDLSQGPVRAAQAAPQVLCTASVHHDHPHAIETLVEALGPVELELILLMASPQTDIPALLARAAAVLPGTRIVGCTTAGEISAAGYTEGEIVAIGMPRAYFKAQTMLIDDLTDYDAQAIIDRMIQTRNDLAAARPEWGHEFNFLLIDGLSTLEDRLVSDLAMGLGPVPLFGGSAGDGERFGTTFVFHEGRAHGNAAVLMQVRTRCPIQVFKTDHLIPTEKRMVVTGADPDRRLVHEINAEPAAREYARVLGKDPEQLTTFTFAAHPVVVRIGGQHHVRSIQRVAENGDLVFFSAIDEGLVLTLAEARDMREHLREELGRLAADGPPAVILGCDCLLRRMEAQQKQVLGALSDILRENRVVGFSTYGEQFNSMHVNQTLTGVAIYPPDDM” the value was “soluble”; for “MAIEIKLETPRQEAVLRLIDLSNAYMASLYPAESNHLVDIGALEKDNVSFFVARHDGRVVGCGALVEAGDGTAEVKRMFVDPEARGLRIGKLIMDTLVARGTELGLSAIRLETGISQPEAIGLYRKEGFVEIEAFAPYKPDPLSLFMERAL”, “not soluble”; for “MYKDYPAAYQVSKGAALQVDTAFYERLRANAQQRTLVEQFEVPIRTGRAWKVKAGQVFRVTTPAGPQVGDFNVWNAHDPRERLWAARTRQLQGAHVSTHDRLWSNLPFLRPLVTITDDSLASYGIDEHGGRLHDLLGTRCDPYVKKMLTGEDFHHHCHSNLTRAVLPHGLTEFDVHDVLNIFQCTGLNHDDMYFMKACPAQKGDYLEFFAEIDLLCALSTCPGGDLSLPMWGPDAQDPLSVCRPLGVEIYNLDAALLEGWQSPERAAYNGLHGLQIAKVDWEKLEHHHHHH”, “not soluble”.
